# Laboratory results as given in publication PMC3445459.
# Key:
# [1] = target: HIV-1 integrase E85F, 6xHis-tagged (HIV-1 (NL4-3))
# [2] = target: HIV-1 integrase E85F, 6xHis-tagged (HIV-1 (NL4-3)); remark: listed apart in the source
# [3] = target: HIV-1 integrase K103E, 6xHis-tagged (HIV-1 (NL4-3))
# LEDGF/p75 = LEDGF/p75 (UniProt O75475); test: AlphaScreen or HTRF; IN-LEDGF/p75 interaction assay as previously described (ref. 32), mutant IN proteins in place of WT; signal relative to WT IN
# [4] = target: HIV-1 integrase W108F, 6xHis-tagged (HIV-1 (NL4-3))
# UniProt O75475, sequence (O75475 whole entry): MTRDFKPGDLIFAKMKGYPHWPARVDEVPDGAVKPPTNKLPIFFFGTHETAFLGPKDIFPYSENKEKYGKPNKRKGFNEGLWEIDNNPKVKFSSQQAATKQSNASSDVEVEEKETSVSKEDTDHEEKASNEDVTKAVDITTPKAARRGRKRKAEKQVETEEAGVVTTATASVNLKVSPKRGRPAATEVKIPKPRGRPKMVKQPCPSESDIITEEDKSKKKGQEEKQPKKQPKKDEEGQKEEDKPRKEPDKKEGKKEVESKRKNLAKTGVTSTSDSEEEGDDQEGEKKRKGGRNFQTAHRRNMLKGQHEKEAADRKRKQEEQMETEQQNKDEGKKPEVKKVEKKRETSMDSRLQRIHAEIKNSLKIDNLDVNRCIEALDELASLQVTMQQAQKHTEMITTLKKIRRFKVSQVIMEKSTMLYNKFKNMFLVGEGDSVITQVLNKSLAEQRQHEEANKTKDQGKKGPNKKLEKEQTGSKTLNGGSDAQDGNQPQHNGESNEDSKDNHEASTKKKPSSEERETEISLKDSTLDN
substance,measurement,setting,value
"HIV-1 integrase E85F, 6xHis-tagged (enzyme)","in vitro strand transfer activity with 21-mer DNA substrate, relative to WT IN",[1],37 % of WT
same,"in vitro strand transfer activity with pre-processed 19-mer DNA substrate, relative to WT IN",[2],1.6 fold of WT
"HIV-1 integrase K103E, 6xHis-tagged (enzyme)","in vitro strand transfer activity with pre-processed 19-mer DNA substrate, relative to WT IN",[3],29 % of WT
"HIV-1 integrase K103G, 6xHis-tagged (enzyme)",interaction relative to WT IN (of the WT interaction),LEDGF/p75,< 0.33
same,percent of the WT interaction level,LEDGF/p75,30 % of WT
"HIV-1 integrase W108F, 6xHis-tagged (enzyme)","in vitro strand transfer activity with pre-processed 19-mer DNA substrate, relative to WT IN",[4],30 % of WT
